Measurements from doi:10.1101/2024.10.23.619882.

Key:
Test in all cases: pull-down
[1] = target: EGFP-tagged NHSL1-F1 with the two Abi binding sites mutated (human)
[2] = target: EGFP-tagged NHSL1-F1 with the 9 EndoA2 sites that do not bind Abi mutated (human)
[3] = target: EGFP-tagged NHSL1-F1 with all 11 EndoA2 binding sites and both FP4 motifs mutated (human)
[4] = target: EGFP-tagged NHSL1-F1 with both FP4 motifs mutated (human)
[5] = target: EGFP-tagged NHSL1-F1 with all 11 EndoA2 binding sites mutated (human)

fold reduction in binding against wild-type NHSL1 [1]: 5 fold
fold reduction in binding against wild-type NHSL1 [2]: 5 fold
fold reduction in binding against wild-type NHSL1 [3]: 5 fold
fold reduction in binding against wild-type NHSL1 [4]: 2 fold
fold reduction in binding against wild-type NHSL1 [5]: 5 fold
Substance: Myc-tagged wild-type EndoA2 (endophilin A2) (from UniProt O35964 1-368) (natural protein)
